# Results: patent US20250099634A1, “METHOD OF TREATING CANCER” (Novartis AG, priority 2023, published 2025)
# Tests used:
# BCRP = BCRP (Homo sapiens, UniProt Q9UNQ0); details: not told
# serum inhibin B = details: human, in vivo; cited from earlier work
# OATP1B3 = OATP1B3 (Homo sapiens, UniProt Q9NPD5)
# Sequence of OATP1B3 (Q9NPD5 whole entry): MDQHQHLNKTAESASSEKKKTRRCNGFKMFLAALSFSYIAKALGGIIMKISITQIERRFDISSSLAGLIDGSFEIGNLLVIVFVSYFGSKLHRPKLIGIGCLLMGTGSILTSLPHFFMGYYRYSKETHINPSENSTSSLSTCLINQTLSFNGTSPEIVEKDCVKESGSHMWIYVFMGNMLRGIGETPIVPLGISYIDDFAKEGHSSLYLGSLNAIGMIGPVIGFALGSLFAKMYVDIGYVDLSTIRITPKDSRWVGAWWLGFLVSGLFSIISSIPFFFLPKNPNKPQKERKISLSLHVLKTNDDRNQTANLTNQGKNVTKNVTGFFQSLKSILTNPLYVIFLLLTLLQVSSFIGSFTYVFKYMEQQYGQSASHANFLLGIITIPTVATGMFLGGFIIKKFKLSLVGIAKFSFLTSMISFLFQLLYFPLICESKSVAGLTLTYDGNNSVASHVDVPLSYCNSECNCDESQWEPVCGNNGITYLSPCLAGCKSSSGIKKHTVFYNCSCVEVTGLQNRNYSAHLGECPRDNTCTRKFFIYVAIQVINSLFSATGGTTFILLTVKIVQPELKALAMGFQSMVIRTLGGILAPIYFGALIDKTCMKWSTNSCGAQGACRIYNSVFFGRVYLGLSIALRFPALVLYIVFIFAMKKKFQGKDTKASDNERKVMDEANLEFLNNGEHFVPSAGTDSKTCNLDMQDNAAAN
# Sequence of BCRP (Q9UNQ0 whole entry): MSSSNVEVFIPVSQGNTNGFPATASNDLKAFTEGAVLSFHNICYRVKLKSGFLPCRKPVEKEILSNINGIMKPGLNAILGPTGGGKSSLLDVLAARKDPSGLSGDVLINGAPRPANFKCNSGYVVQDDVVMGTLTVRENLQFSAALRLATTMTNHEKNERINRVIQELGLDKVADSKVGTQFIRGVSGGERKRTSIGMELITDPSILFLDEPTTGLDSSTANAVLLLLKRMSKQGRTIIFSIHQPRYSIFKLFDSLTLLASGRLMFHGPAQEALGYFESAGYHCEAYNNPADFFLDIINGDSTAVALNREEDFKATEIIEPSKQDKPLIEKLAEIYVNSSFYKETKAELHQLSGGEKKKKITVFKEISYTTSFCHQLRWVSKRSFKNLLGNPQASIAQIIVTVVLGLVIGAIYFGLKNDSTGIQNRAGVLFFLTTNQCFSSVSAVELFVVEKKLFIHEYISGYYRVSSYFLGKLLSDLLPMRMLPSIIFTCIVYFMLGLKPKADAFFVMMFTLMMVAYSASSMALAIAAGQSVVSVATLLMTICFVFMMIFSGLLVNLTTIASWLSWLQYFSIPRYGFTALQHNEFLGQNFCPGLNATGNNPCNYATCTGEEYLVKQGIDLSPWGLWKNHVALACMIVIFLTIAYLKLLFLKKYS
smiles,measurement,setting,value
"C[C@@H](O)[C@H](NC(=O)[C@@H]1CSSC[C@H](NC(=O)[C@@H](Cc2ccccc2)NC(=O)CN2CCN(CC(=O)[O-])CCN(CC(=O)[O-])CCN(CC(=O)[O-])CC2)C(=O)N[C@@H](Cc2ccc(O)cc2)C(=O)N[C@H](Cc2c[nH]c3ccccc23)C(=O)N[C@@H](CCCCN)C(=O)N[C@@H]([C@@H](C)O)C(=O)N1)C(=O)O.[177Lu+3] [Lutathera, ^177Lu-DOTA^0-Tyr^3-Octreotate]",interaction with BCRP,BCRP,absence of specific interaction
same,mean serum inhibin B levels,serum inhibin B,significant decrease
same,interaction with OATP1B3,OATP1B3,absence of specific interaction
